Key:
[1] = target: full length human CD16b stably expressed on transduced WT Jurkat cells (human) (UniProt O75015); test: flow cytometry on CD16b-transduced WT Jurkat cells stained with anti-CD16 (axis printed VL1-A :: CD16-eFluor 450-A)
[2] = target: HER2 on SKOV3 cells (human) (UniProt P04626); test: flow cytometry on SKOV3 cells, isotype ctrl PerCP/Cy5.5
[3] = target: HER2 on JIMT-1 cells (human) (UniProt P04626); test: flow cytometry on JIMT-1 cells, isotype ctrl PerCP/Cy5.5
[4] = target: HER2 on MDA-MB-231 cells (human) (UniProt P04626); test: flow cytometry on MDA-MB-231 cells, isotype ctrl PerCP/Cy5.5
[5] = target: HER2 on MDA-MB-175 cells (human) (UniProt P04626); test: flow cytometry on MDA-MB-175 cells, isotype ctrl PerCP/Cy5.5
[6] = target: HER2 on HT29 cells (human) (UniProt P04626); test: flow cytometry on HT29 cells, isotype ctrl PerCP/Cy5.5
[7] = target: HER2 on JIMT-1 cells (human) (UniProt P04626); test: flow cytometry on JIMT-1 cells, anti-HER2 PerCP/Cy5.5 at 1:20
[8] = target: HER2 on MDA-MB-175 cells (human) (UniProt P04626); test: flow cytometry on MDA-MB-175 cells, anti-HER2 PerCP/Cy5.5 at 1:20
[9] = target: HER2 on SKOV3 cells (human) (UniProt P04626); test: flow cytometry on SKOV3 cells, anti-HER2 PerCP/Cy5.5 at 1:20
[10] = target: HER2 on HT29 cells (human) (UniProt P04626); test: flow cytometry on HT29 cells, anti-HER2 PerCP/Cy5.5 at 1:20
[11] = target: HER2 on MDA-MB-231 cells (human) (UniProt P04626); test: flow cytometry on MDA-MB-231 cells, anti-HER2 PerCP/Cy5.5 at 1:20

full length human CD16b stably expressed on transduced WT Jurkat cells (human), sequence (O75015 17-200): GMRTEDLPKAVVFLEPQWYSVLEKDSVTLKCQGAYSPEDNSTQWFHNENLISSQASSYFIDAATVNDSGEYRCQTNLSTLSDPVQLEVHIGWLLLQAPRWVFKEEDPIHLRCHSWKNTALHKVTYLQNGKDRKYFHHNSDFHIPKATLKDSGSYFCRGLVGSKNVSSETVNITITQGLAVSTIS

CD16-BV421 (BV421 mouse anti-human CD16 clone 3G8, BD Biosciences) (antibody)
CD16 gate (percent of cells) [1]: 100

iso ctrl (Isotype ctrl PerCP/Cy5.5 antibody)
Median : BL3-A [2]: 491
Median : BL3-A [3]: 306
Median : BL3-A [4]: 520
Median : BL3-A [5]: 331
Median : BL3-A [6]: 361

HER2 (Anti-Her2 PerCP/Cy5.5, BioLegend #324416) (antibody)
Median : BL3-A [7]: 10300
Median : BL3-A [8]: 6860
Median : BL3-A [9]: 25400
Median : BL3-A [10]: 2230
Median : BL3-A [11]: 1240
